Data: paper PMC4999541 (mBio, 2016)
Where two headings read alike, the source gives them in different places. Numbered stars: 1 amine (or outer) side, 2 acyl side, 3 side chain; on linkers, the order of the positions; unused ones are H or OH. Bridge positions count the residues as written; N and C are the ends. Square brackets hold non-standard residues; d marks the D form. Peptide text beside a SMILES is read from it. Adda = CO[C@@H](Cc1ccccc1)[C@@H](C)/C=C(C)/C=C/[C@H](N[*:1])[C@H](C)C(=O)[*:2]; dAsp(3S-Me) = C[C@H](C(=O)[*:3])[C@@H](N[*:1])C(=O)[*:2]; d(γGlu) = O=C(O)[C@@H](CCC(=O)[*:2])N[*:1]; NMeDha = C=C(NC)C(=O)O

Experiments:
PPZ1FL = PPZ1FL (Candida albicans, UniProt C4YM68); assay type: biochemical
PPZ1cat [1] = target: T1, PPZ1cat (Candida albicans, UniProt C4YM68); assay type: biochemical
PP1c = assay type: biochemical, rabbit
PPZ1cat [2] = target: T1, PPZ1cat; experiment: Phosphatase inhibition assay, pNPP substrate, PPZ1cat; assay type: biochemical
PP1α [3] = target: T2, PP1α (Homo sapiens, UniProt P62136); experiment: Phosphatase inhibition assay, pNPP substrate, PP1α; assay type: biochemical; parameters: made in house; host or cells: E. coli
Target sequence in this assay (P62136 whole entry): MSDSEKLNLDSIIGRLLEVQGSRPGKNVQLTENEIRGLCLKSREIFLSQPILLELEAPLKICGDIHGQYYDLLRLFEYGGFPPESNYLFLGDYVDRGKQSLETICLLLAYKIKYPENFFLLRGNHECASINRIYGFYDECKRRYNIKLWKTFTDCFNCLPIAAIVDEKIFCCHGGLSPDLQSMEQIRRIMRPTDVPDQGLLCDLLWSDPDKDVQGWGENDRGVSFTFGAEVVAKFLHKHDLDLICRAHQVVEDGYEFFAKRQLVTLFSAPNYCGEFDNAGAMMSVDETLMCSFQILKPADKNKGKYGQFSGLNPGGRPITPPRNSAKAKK

PP1α [4] = target: T2, PP1α; settings: cited from earlier work
Target sequence in this assay (P62136 2-330): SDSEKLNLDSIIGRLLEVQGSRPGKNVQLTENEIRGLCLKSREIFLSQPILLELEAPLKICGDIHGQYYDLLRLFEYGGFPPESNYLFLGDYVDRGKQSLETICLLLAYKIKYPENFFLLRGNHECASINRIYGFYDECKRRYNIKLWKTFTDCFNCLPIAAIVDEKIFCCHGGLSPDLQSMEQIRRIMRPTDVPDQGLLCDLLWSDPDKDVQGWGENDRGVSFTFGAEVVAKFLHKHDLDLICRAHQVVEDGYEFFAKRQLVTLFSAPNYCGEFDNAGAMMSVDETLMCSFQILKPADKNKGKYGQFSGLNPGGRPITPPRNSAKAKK

PPZ1cat [5] = target: T1, PPZ1cat; experiment: Pulldown assay with PPZ1cat; assay type: binding; settings: for Less binding in pulldown by PPZ1 compared to PP1α: densitometry of the gel
Protocol: (§1) GADD34_552–567 was purchased. PNUTS394–433 and spinophilin417–602 were purified according to a method described previously ([19], [27]). […]. PP1α7–330 and PPZ1cat were purified by the method described above but retained the His tag. After SEC (20 mM Tris [pH 8.0], 500 mM NaCl, 0.5 mM TCEP, 1 mM MnCl2), 50% (vol/vol) glycerol was added to both PP1α7–330 and PPZ1cat. The final concentrations of the proteins were adjusted to 5 µM. […] of each PP1 regulator was added into 500 µl of PP1α7–330 or PPZ1cat. The mixture was incubated under rocking (4°C) for 60 min to allow for complex formation. A 15-μl bed volume of Ni-NTA resin (GE Healthcare) was added into tubes, and the mixture was incubated at 4°C for 60 min. The beads were pelleted by centrifugation (2000 × g) and washed three times with 500 µl of SEC buffer. Forty microliters of SDS loading buffer was added to the beads, and the samples were boiled at 80°C for 5 min and analyzed on NuPAGE 4 to 12% bis-Tris gels. Gels were stained overnight with SYPRO ruby protein gel stain (Life Technologies) according to the manufacturer’s protocols and scanned using a Typhoon 9410 laser scanner (GE Healthcare) with an excitation wavelength of 457 nm and emission filter of 610 nm following destaining. Densitometry was performed using ImageQuant TL 7.0 software for quantification of the band intensity.

PP1α [6] = target: T2, PP1α; settings: cited from earlier work; remark: listed apart in the source
Target sequence in this assay (P62136 2-330): as above

PP1α7–330 = target: T3, PP1α7–330 (Homo sapiens, UniProt P62136); experiment: Pulldown assay with PP1α; assay type: binding; settings: compared to wild-type spinophilin; in words
T3 construct: PP1α7–330 and PPZ1cat were purified by the method described above; made in house; host or cells: E. coli
Protocol: as §1

[7] = target: C. albicans PPZ1 C-terminal catalytic domain (aa 171 to 484), His6 tag removed (Candida albicans) (UniProt Q59U06)
[8] = target: catalytic subunit of rabbit skeletal muscle protein phosphatase 1 (rabbit) (UniProt P62139)
Target sequence in this assay (P62139 whole entry): as the sequence (P62136 whole entry) above

[9] = target: human PP1α(7-330), His tag retained (human) (UniProt P62136)
[10] = target: T4, full-length C. albicans PPZ1 (Candida albicans) (UniProt Q59U06)
T4 sequence: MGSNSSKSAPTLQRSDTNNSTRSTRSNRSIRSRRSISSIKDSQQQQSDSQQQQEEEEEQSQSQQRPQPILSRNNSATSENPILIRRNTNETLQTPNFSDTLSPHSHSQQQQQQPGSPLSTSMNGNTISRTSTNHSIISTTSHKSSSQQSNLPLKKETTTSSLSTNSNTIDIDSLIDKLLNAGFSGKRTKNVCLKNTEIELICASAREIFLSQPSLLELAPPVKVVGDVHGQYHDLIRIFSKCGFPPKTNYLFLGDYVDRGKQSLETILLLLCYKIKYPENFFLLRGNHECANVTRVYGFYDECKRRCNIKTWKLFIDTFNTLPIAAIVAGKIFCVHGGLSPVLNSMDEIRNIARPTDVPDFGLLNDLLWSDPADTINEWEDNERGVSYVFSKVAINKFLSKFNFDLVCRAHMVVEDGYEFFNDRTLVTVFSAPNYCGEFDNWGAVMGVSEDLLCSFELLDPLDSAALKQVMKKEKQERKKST

PP1α [11] = target: T2, PP1α; settings: cited from earlier work; remark: listed apart in the source
Target sequence in this assay (P62136 2-330): as the sequence (P62136 2-330) above

[12] = target: C. albicans PPZ1 C-terminal catalytic domain (aa 171 to 484), His6 tag removed (Candida albicans) (UniProt Q59U06); remark: listed apart in the source
[13] = target: catalytic subunit of rabbit skeletal muscle protein phosphatase 1 (rabbit) (UniProt P62139); remark: listed apart in the source
Target sequence in this assay (P62139 2-330): as the sequence (P62136 2-330) above

[14] = target: T4, full-length C. albicans PPZ1 (Candida albicans); remark: listed apart in the source
[15] = target: T5, C. albicans PPZ1 C-terminal catalytic domain (aa 171 to 484), His6 tag removed (Candida albicans, UniProt Q59U06 169-482); experiment: ITC; settings: both partners purified
T5 construct: also called PPZ1cat; CaPPZ1
T5 sequence: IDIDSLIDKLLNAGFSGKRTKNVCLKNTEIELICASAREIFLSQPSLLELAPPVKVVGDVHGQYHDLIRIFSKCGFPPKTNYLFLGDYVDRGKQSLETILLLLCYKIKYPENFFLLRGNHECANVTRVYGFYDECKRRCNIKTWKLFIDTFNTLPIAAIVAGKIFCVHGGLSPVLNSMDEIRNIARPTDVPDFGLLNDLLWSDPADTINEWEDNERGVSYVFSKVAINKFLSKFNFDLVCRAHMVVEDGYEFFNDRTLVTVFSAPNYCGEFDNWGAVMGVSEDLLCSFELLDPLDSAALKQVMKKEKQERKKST

T1 sequence (C4YM68 entry or part of it): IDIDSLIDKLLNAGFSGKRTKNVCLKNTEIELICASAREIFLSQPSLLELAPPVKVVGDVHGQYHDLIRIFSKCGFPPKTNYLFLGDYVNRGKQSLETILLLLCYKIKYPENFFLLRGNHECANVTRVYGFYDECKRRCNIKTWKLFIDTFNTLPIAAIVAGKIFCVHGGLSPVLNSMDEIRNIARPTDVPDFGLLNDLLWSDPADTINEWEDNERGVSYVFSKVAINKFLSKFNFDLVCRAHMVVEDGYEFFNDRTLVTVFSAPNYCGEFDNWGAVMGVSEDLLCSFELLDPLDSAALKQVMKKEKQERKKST
Chain of PPZ1FL (C4YM68 entry or part of it): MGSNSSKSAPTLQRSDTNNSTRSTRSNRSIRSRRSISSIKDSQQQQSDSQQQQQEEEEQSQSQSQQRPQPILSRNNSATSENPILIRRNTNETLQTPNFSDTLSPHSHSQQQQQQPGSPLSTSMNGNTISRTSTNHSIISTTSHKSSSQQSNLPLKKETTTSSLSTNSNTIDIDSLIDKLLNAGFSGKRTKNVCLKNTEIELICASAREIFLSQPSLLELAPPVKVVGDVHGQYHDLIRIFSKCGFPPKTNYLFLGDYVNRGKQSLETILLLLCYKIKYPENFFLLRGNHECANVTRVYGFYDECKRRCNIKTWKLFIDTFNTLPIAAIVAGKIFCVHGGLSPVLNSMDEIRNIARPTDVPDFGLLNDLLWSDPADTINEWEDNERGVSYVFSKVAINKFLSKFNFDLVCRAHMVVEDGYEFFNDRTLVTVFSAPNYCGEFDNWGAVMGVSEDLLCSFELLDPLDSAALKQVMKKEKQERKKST
T3 sequence (P62136 7-330): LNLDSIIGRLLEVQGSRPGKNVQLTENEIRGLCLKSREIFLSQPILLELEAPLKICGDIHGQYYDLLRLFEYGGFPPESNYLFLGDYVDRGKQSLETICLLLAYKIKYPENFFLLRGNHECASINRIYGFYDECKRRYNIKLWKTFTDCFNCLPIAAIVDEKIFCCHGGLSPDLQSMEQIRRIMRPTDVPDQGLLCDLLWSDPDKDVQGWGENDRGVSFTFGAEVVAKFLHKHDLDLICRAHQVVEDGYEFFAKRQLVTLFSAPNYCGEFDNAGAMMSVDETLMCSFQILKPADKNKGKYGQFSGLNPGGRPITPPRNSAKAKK
Chain of human PP1α(7-330), His tag retained (human) (P62136 7-330): as above

Molecule `C=C1C(=O)N[C@H](C)C(=O)N[C@@H](CC(C)C)C(=O)N[C@@H](C(=O)O)[C@H](C)C(=O)N[C@@H](CCCNC(=N)N)C(=O)N[C@@H](/C=C/C(C)=C/[C@H](C)[C@H](Cc2ccccc2)OC)[C@H](C)C(=O)N[C@@H](C(=O)O)CCC(=O)N1C` [MC, microcystin-LR] (R[Adda][d(γGlu)][NMeDha][dA]L[dAsp(3S-Me)]-OH; lactam N-7) has an IC50 (PPZ1FL; read-out: IC50 of MC) of 0.96 nM, an IC50 (PPZ1cat [1]; read-out: IC50 of MC) of 0.72 nM and an IC50 (PP1c) of 0.43 nM. The IC50 (PPZ1cat [2]) was 11.8 nM and the IC50 (PP1α [3]) was 4.4 nM.

In the case of GADD34 552-567 (from UniProt O75807), the Kd (PP1α [4]) is given as 62 nM.

In the case of “GADD34_552–567: purchased peptide, minimal PP1-binding domain of regulator GADD34 with RVxF and ΦΦ motifs (KARKVRFSEKVTVHFL)”, the “Binding in pulldown by PPZ1cat compared to PP1α” value (PPZ1cat [5]; in words) is reported as “less effectively”.

For “PNUTS394–433: minimal PP1-binding domain of PP1 regulator PNUTS (RVxF-ΦΦ-Arg) (RKRKTVTWPEEGKLREYFYFELDETERVNVNKIKDFGEAA)”, the “Less binding in pulldown by PPZ1 compared to PP1α” value (PPZ1cat [5]) was ~ 85%.

For PNUTS 394-433 (from UniProt Q96QC0), the Kd (PP1α [6]) is given as 9.3 nM.

With “SpinoR469D: spinophilin417–602 variant with Arg motif mutation R469D” the “Amount of spinophilin variant pulled down by PP1α” value (PP1α7–330) was “reduces the amount of spinophilin pulled down”.

In the case of “SpinoR469E: spinophilin417–602 variant with Arg motif mutation R469E”, the “Amount of spinophilin variant pulled down by PP1α” value (PP1α7–330) is reported as “reduces the amount of spinophilin pulled down”.

For microcystin-LR (peptide), the inhibition of phosphatase activity, 32P-labeled MLC20 (pMLC) substrate, IC50 [7] was 0.72 nM, the inhibition of phosphatase activity, pNPP substrate, IC50 [7] was 11.8 nM and the inhibition of phosphatase activity, 32P-labeled MLC20 (pMLC) substrate, IC50 [8] was 0.43 nM. The inhibition of phosphatase activity, pNPP substrate, IC50 [9] was 4.4 nM and the inhibition of phosphatase activity, 32P-labeled MLC20 (pMLC) substrate, IC50 [10] was 0.96 nM.

With “spinophilin417–602: minimal PP1-binding domain of PP1 regulator spinophilin” the “Less binding in pulldown by PPZ1 compared to PP1α” value (PPZ1cat [5]) was ~ 85%.

In the case of “spinophilin 417-602 (from UniProt O35274)”, the Kd (PP1α [11]) is listed as 8.7 nM.

B1: recombinant 6×His-tagged inhibitor-2 (natural protein)
chain: MAASTASHRPIKGILKNKTSTTSSMVASAEQPRGNVDEELSKKSQKWDEMNILATYHPADKDYGLMKIDEPSTPYHSMMGDDEDACSDTEATEAMAPDILARKLAAAEGLEPKYRIQEQESSGEEDSDLSPEEREKKRQFEMKRKLHYNEGLNIKLARQLISKDLHDDDEDEEMLETADGESMNTEESNQGSTPSDQQQNKLRSS
In the case of B1, the inhibition of phosphatase activity by increasing concentrations of I-2, IC50 [12] is reported as 7 nM, the inhibition of phosphatase activity by increasing concentrations of I-2, IC50 [13] is reported as 12 nM and the inhibition of phosphatase activity by increasing concentrations of I-2, IC50 [14] is reported as 278 nM.

With KARKVRFSEKVTVHFL (peptide, UniProt O75807 552-567, looked up, also called G34) [GADD34(552-567) peptide] the Kd [15] was 1150 ± 90 nM.

B2: I-2: inhibitor-2, a specific protein inhibitor of PP1; recombinant 6×His-tagged (protein)
chain: AASTASHRPIKGILKNKTSTTSSMVASAEQPRGNVDEELSKKSQKWDEMNILATYHPADKDYGLMKIDEPSTPYHSMMGDDEDACSDTEATEAMAPDILARKLAAAEGLEPKYRIQEQESSGEEDSDLSPEEREKKRQFEMKRKLHYNEGLNIKLARQLISKDLHDDDEDEEMLETADGESMNTEESNQGSTPSDQQQNKLRSS
For B2, the IC50 (PPZ1FL; PPZ1FL, includes N-terminal IDP domain, read-out: IC50 of I-2) was 278 nM and the IC50 (PPZ1cat [1]; PPZ1cat, recombinant I-2, read-out: IC50 of I-2) was 7 nM.
